Literature values as cited in US5770693A, “Calpain-inhibiting peptide analogs of the kininogen heavy chain” (Temple University-Of The Commonwealth System of Higher …, priority 1995, dated 1998).

Molecular target: T1, papain (Carica papaya, UniProt P00784)
T1 sequence (P00784 134-345): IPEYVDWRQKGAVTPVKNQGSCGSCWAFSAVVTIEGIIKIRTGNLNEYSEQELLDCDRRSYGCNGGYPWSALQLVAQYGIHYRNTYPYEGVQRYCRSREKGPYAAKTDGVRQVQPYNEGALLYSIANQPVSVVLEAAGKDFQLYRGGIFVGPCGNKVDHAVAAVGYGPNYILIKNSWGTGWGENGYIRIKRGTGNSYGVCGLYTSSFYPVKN

Which “activity in inhibiting papain (in words)” value does the source give for “Gln-Val-Val-Ala-Gly (QVVAG; printed: Gln-Val-Val-Ala-Gly) [pentapeptide contained in kininogen heavy chain domains D2 and D3]” here?
The value was “weak activity”.
